Experimental data published in PMC7431520.
Each block holds one substance with its values, some of them ahead of it.

Columns and labels:
[1] = biological target: recombinant LAL2 (rLAL2) protein (Lampetra japonica); assay: SPR; rLAL2 coupled to a CM5 chip (NHS/EDC, buffer pH 4.0, blocked with ethanolamine); LIP as analyte at different concentrations in HBS-EP; Biacore T200; affinity kinetics fitting
[2] = biological target: natural LAL2 protein (Lampetra japonica); assay: SDS-PAGE and western blot band identified by LC-MS/MS; lamprey serum on 12% SDS-PAGE, blot with rabbit anti-LAL2 antibody; band around 40 kDa analysed by LC-MS/MS of tryptic peptides
[3] = biological target: lamprey immune protein (LIP) (Lampetra japonica); assay: SPR; LIP coupled to a CM5 chip (NHS/EDC, buffer pH 4.0, blocked with ethanolamine); analyte (rLAL2 or TRX) at different concentrations in HBS-EP; Biacore T200; affinity kinetics fitting

Kd [1]: 21.1 nM
Substance: lamprey immune protein (LIP) (natural protein)

stoichiometry N [2]: 2
Substance: natural LAL2 protein (natural protein)

Kd [3]: 55.8 nM
Substance: recombinant LAL2 (rLAL2) protein (natural protein)
